# Laboratory results taken from patent US20040265809A1 (published 2004).
# T1: rat RORβ ligand-binding domain (RORβ-LBD), residues 201-452, polyhistidine-tagged (rat, UniProt P45446 212-463)
# T1 construct: Expressed in E. coli; The ligand pocket holds stearic acid (first crystal) or all-trans retinoic acid (second crystal); One monomer per asymmetric unit; also called rRORβ-LBD; RORbeta LBD; not shown: N-terminal polyhistidine tag and thrombin cleavage site from the pet15b vector (Novagen); the tagge
# T1 sequence: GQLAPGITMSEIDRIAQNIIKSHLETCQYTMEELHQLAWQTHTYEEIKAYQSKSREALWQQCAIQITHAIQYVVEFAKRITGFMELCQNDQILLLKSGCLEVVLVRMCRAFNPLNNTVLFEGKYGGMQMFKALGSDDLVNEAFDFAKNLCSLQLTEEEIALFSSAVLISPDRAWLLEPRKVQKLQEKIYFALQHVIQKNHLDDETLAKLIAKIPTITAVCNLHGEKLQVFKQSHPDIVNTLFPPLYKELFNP
# Molecular target: T1, rat RORβ ligand-binding domain …
# Assay: co-crystallisation, hanging drop, stearate complex
# Experimental: The RORβ-LBD stearate complex was crystallized at 22° C. by vapor diffusion in the hanging-drop mode. In the crystallisation trials, the protein was used without further purification and co-crystallized with a 3-molar excess of SRC-1⁶⁸⁶⁻⁷⁰⁰([…]) NR-interacting peptide co-activator sequence. Addition of the peptide was crucial to obtain crystals. In the initial trial to obtain crystallization conditions, a sparse matrix crystallization screen was done with a home screen. For each crystallization trial, a 4 μl drop was prepared by mixing 2 μl of purified protein (5.8 mg/ml) with an equal volume of reservoir solution. The reservoir contained 500 μl of the precipitating solution. A crystal measuring […] at 22° C. in PEG 6000 15% and 100 mM Tris HCl at pH=8.0 grew within about 2 weeks. This crystal was used in a first data collection run (as described below).
binder,measurement,value
RHKILHRLLQEGSPS (also called SRC1 peptide) [SRC-1 686-700 NR-interacting co-activator peptide],binding result,binds
